Consider 3 molecules from publication PMC3049835 (Analytical biochemistry, 2011).

Series [1] concerns the target SphK1 (Homo sapiens, UniProt Q9NYA1). The note with it: read-out: Km with respect to sphingosine, SphK1, previously reported; cited from earlier work.
Substrate in series [2]: Nc1ncnc2c1ncn2[C@@H]1O[C@H](COP(=O)(O)OP(=O)(O)OP(=O)(O)O)[C@@H](O)[C@H]1O
The series is described as follows: purified protein, by the assay type. The note with it: other: FlashPlate; 5–10 μM sphingosine, ATP 0–600 μM; 37.0 °C.

Substrate in series [3]: CCCCCCCCCCCCC/C=C/[C@@H](O)[C@@H](N)CO
The series is described as follows: 96-well FlashPlate SphK assay, SphK2. In kind it is biochemical. The note with it: other: FlashPlate; ATP fixed at 250 μM, sphingosine 0–50 μM; 37.0 °C.

Substrate in series [4]: CCCCCCCCc1ccc(CCC(N)(CO)CO)cc1
The series is described as follows: 96-well FlashPlate SphK assay, SphK2. In kind it is biochemical. The note with it: other: FlashPlate; FTY720 as selective SphK2 substrate; 37.0 °C.

On to `CCCCCCCCCCCCC/C=C/[C@@H](O)[C@@H](N)CO` [sphingosine, D-erythro-sphingosine], for which, in series [1], the Michaelis constant (Km) (commonly the substrate concentration at which the rate is half of its maximum) is 5 to 17 µM.

B1: SphK1 (Homo sapiens) (protein)
chain: MSAQVLGFLRSWTPLPLAAPRGPAAAGNDAGAPAATAPGGEGEPHSRPCDARLGSTDKELKAGAAATGSAPTAPGTPWQREPRVEVMDPAGGPRGVLPRPCRVLVLLNPRGGKGKALQLFRSHVQPLLAEAEISFTLMLTERRNHARELVRSEELGRWDALVVMSGDGLMHEVVNGLMERPDWETAIQKPLCSLPAGSGNALAASLNHYAGYEQVTNEDLLTNCTLLLCRRLLSPMNLLSLHTASGLRLFSVLSLAWGFIADVDLESEKYRRLGEMRFTLGTFLRLAALRTYRGRLAYLPVGRVGSKTPASPVVVQQGPVDAHLVPLEEPVPSHWTVVPDEDFVLVLALLHSHLGSEMFAAPMGRCAAGVMHLFYVRAGVSRAMLLRLFLAMEKGRHMEYECPYLVYVPVVAFRLEPKDGKGVFAVDGELMVSEAVQGQVHPNYFWMVSGCVEPPPSWKPQQMPPPEEPL
With B1, in series [2], the Km stood at 125 µM.

B2: SphK2 (Homo sapiens) (protein)
chain: MNGHLEAEEQQDQRPDQELTGSWGHGPRSTLVRAKAMAPPPPPLAASTPLLHGEFGSYPARGPRFALTLTSQALHIQRLRPKPEARPRGGLVPLAEVSGCCTLRSRSPSDSAAYFCIYTYPRGRRGARRRATRTFRADGAATYEENRAEAQRWATALTCLLRGLPLPGDGEITPDLLPRPPRLLLLVNPFGGRGLAWQWCKNHVLPMISEAGLSFNLIQTERQNHARELVQGLSLSEWDGIVTVSGDGLLHEVLNGLLDRPDWEEAVKMPVGILPCGSGNALAGAVNQHGGFEPALGLDLLLNCSLLLCRGGGHPLDLLSVTLASGSRCFSFLSVAWGFVSDVDIQSERFRALGSARFTLGTVLGLATLHTYRGRLSYLPATVEPASPTPAHSLPRAKSELTLTPDPAPPMAHSPLHRSVSDLPLPLPQPALASPGSPEPLPILSLNGGGPELAGDWGGAGDAPLSPDPLLSSPPGSPKAALHSPVSEGAPVIPPSSGLPLPTPDARVGASTCGPPDHLLPPLGTPLPPDWVTLEGDFVLMLAISPSHLGADLVAAPHARFDDGLVHLCWVRSGISRAALLRLFLAMERGSHFSLGCPQLGYAAARAFRLEPLTPRGVLTVDGEQVEYGPLQAQMHPGIGTLLTGPPGCPGREP
Consider B2, for which the Km in series [3] is 6 µM; in series [4], 22 µM; in series [2], 79 µM.
